30 sequences from the nanobody polyreactivity screen of Harvey et al. (2022) can be followed below.

The data set in a line: yeast display, Sf9 membrane polyspecificity reagent, FACS + sequencing; frameworks hold sequencing errors. The essentials: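 Galactose induction of a Saccharomyces cerevisiae BJ5465 synthetic nanobody display library ran 36–48 hours. The cells were then stained for 1 hour at 4 °C with 10% biotinylated, detergent-solubilized Sf9 membrane reagent, pulled down on streptavidin microbeads and FACS-sorted into low and high (top ~1%) gates on expression and reagent-binding fluorescence. Labels for polyreactivity follow the gate of origin.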
As for “QVQLVESGGGLVQAGGSLRLSCAASGRTFWSYAMGWYRQAPGKERELVAAINSSGDSTYYADSVKGRFTISRDNAKNTVYLQMNSLKPEDTAVYYCAADGGLLAGSDATVRMDYWGQGTQVTVSS”, the “polyreactivity (PSR sort gate)” value is reported as “low polyreactivity”.

For “QVQLVESGGGLVQAGGSLRLSCAASGRTFWSYAMGWYRQAPGKVRELVAAITSSGGTTNYADSVKGRFTISRDNAKNTVYLQMNSLKPEDTAVYYCAADNGGAGYYYGYVWYDYWGQGTQVTVSS”, the “polyreactivity (PSR sort gate)” value is reported as “low polyreactivity”. For “QVQLVESGGGLVQAGGSLRLSCAASGRTFWTYTLGWYRQAPGKEREFVAAITFGDGSTSYADSVKGRFTISRDNAKNTVYLQMNSLKPEDTAVYYCAAADQVGQEDDYWGQGTQVTVSS” the value was “low polyreactivity”; for “QVQLVESGGGLVQAGGSLRLSCAASGRTFWTYTMGWYRQAPGKEREFVAAITFGDGSTSYADSVKGRFTISRDNAKNTVYFQMNSLKPEDTAVYYCAKRWRRRFVDVWSLYDYWGQGTQVTVSS”, “low polyreactivity”.

As to “QVQLVESGGGLVQAGGSLRLSCAASGRTFWVYAMGRYRQAPGKEREFVAAISSNGDRTYYADSVKGRFTISRDNAKNTVYLQMNSLKPEDTAVYYCNSRKQYRYLADRMDYWGQGTQVTVSS”, the “polyreactivity (PSR sort gate)” value was “high polyreactivity”. On to “QVQLVESGGGLVQAGGSLRLSCAASGRTFWWYAMGWYRQAPGKERELVATINVSGGSTYYADSVKGRFTISRDNAKNTVYFQINSLKPEDTAVYYCNKRGFYTPSVSYDYWGQGTQVTVSS”, for which the “polyreactivity (PSR sort gate)” value is “low polyreactivity”. For “QVQLVESGGGLVQAGGSLRLSCAASGRTFWYYTMGWYRQAPGKERELVASITYRGGSTYYADSVKGRFTISRDNAKNTVYLQMNSLKPEDTAVYYCNARSGNRYGPRYDYWGQGTQVTVSS” the value was “high polyreactivity”; for “QVQLVESGGGLVQAGGSLRLSCAASGRTFYANAMGWYRQAPGKERELVAAISTGGDGTYYADSVKGRFTISRDNAKNTVYLQMNSLKPEDTAVYYCAVRHRASGILYDYWGQGTQVTVSS”, “low polyreactivity”. Then “QVQLVESGGGLVQAGGSLRLSCAASGRTFYAYAMGWYRQAPGKERELVAAISWRGGDTYYADSVKGRFTISRDNAKNTVELQMNSLKPEDTAVYYCAKDLSRQSGDGEYDYWGQGTQVTVSS”, with “low polyreactivity”; and “QVQLVESGGGLVQAGGSLRLSCAASGRTFYAYAMGWYRQAPGKERELVASISDRGGSTYYADSVKGRFTISRDNAKNTVYVQMNSLKPEDTAVYYCAAEYRTQRWFGSWGQGTQVTVSS”, with “high polyreactivity”; and “QVQLVESGGGLVQAGGSLRLSCAASGRTFYAYTRGWYRQAPGKERELVAAISSSGTRTYYADSVKGRFTISRDNAKNTVYLQMNSLKPEDTAVYDCAKGTQRFRGLDHGYDYWGQGTQVTVSS”, with “high polyreactivity”. For the sequence “QVQLVESGGGLVQAGGSLRLSCAASGRTFYDNAMGWYRQAPGKERELVAAISWSGGSTYADSVKGRFTISRDNAKNTVYLQMNSLKPEDTAVYYCNADAWLASGYRYDYWGQGTQVTVSS”, the “polyreactivity (PSR sort gate)” value is reported as “low polyreactivity”. For “QVQLVESGGGLVQAGGSLRLSCAASGRTFYDNAMGWYRQAPGKERELVAVISTSGARTYYADSVKGRFTISRDNAKNTVYLQMNSLKPEDTAVYYCAARRYKYSWDSGYDLYYWGQGTQVTVSS” the value was “high polyreactivity”. Turning to “QVQLVESGGGLVQAGGSLRLSCAASGRTFYDNVMGWYRQAPGKERELVAAISSGGSTNYADSVKGRFTISRDNAKNTVYLQMNSLIPEDTAVYYCATNGGGGWAYEYWGQGTQVTVSS”, the “polyreactivity (PSR sort gate)” value was “low polyreactivity”. For “QVQLVESGGGLVQAGGSLRLSCAASGRTFYDYAMGWYRQAPGKERELVAAISRRAGSTYYADSVKGRFTISRDNAKNTVYLQMNSLKPEDTAVYYCAAAYYRRWWRGHHYAFDYWGQGTQVTVSS” the value was “high polyreactivity”. For “QVQLVESGGGLVQAGGSLRLSCAASGRTFYFNGMGWYRQAPGKERELVATITASGTITYYADSVKGRFTISRDNAKNTVYLQLNSLKPEDTAVYYCAARQRGYYYSRRYDYWGQGTQVTVTS” the value was “high polyreactivity”; for “QVQLVESGGGLVQAGGSLRLSCAASGRTFYFNGMGWYRQAPGKERELVATITASGTITYYADSVKGRFTISRDNAKNTVYLQMNSLKPEDTAVYYCAARQRGYYYSRSYDYWGQGTQVTVSS”, “high polyreactivity”; for “QVQLVESGGGLVQAGGSLRLSCAASGRTFYFYTLGWYRPAPGKERELVAAITSGGSTNYADSVKGRFTISRDNAKNTVYLQMNSLIPEDTAVYYCAAKYYRVYGYGLRMYYWGQGTQVTVSS”, “high polyreactivity”. “QVQLVESGGGLVQAGGSLRLSCAASGRTFYFYVMGWYRQAPGKERELVARISWSGGSTYYADSVKGRFTISRDNAKNTVYLQMNSLKPEDTAVYYCARQYKYPSSGEYDSWGQGTQVSVSS”: the “polyreactivity (PSR sort gate)” value is listed as “low polyreactivity”. With “QVQLVESGGGLVQAGGSLRLSCAASGRTFYGNVMGWYRQAPGKERELVATISYSAGSTYYADSVKGRFTISRDNAKNTVYFQMNSLKPEDTAVYYCAAAGYVYHWAPRGSRYYYWGQGTQVTVSS”, the “polyreactivity (PSR sort gate)” value is “low polyreactivity”. Then “QVQLVESGGGLVQAGGSLRLSCAASGRTFYGYAMGRYRQAPGKERELVAAISSGGSTYYADSVKGRFTISRDNAKNTVYLQMNSLKPEDTAVYDCAAVKWRRHGGSSEYDYWGQGTQVTVSS”, with “high polyreactivity”; and “QVQLVESGGGLVQAGGSLRLSCAASGRTFYGYAMGWYRQAPGKERELVAAISRSGGRTYYADSVKGRFTISRDNAKNTVYLQMNSLKPEDTAVYYCAAYSVYASPDDYWGQGTQVTVSS”, with “high polyreactivity”; and “QVQLVESGGGLVQAGGSLRLSCAASGRTFYGYAMGWYRQAPGKERELVAGITSRVGSTYYADSVKGRFTISRDNAKNTVYLQMNSLKPEDTAVYYCAADRYAVRSYHYDYWGQGTQVTVSS”, with “low polyreactivity”. Take “QVQLVESGGGLVQAGGSLRLSCAASGRTFYGYGMGWFRQAPGTDRELVAAIRVGGGSTYYADSVKGRFTISRDNAKNTVYLQMNILKPEDTAVYYCASAIYHYRQKDGYWGQGTQVTVSS”: the “polyreactivity (PSR sort gate)” value is on record as “high polyreactivity”. As for “QVQLVESGGGLVQAGGSLRLSCAASGRTFYGYTMGWYRQAPGKERELVAAISWTGGRTYYADSVKGRFTISRDNAKNTVYLQMNSLKPEDTAVYYCAARRYQSEDVPYGYWGQGTQVTVSS”, the “polyreactivity (PSR sort gate)” value is given as “high polyreactivity”. Then “QVQLVESGGGLVQAGGSLRLSCAASGRTFYHYAMGLYRQAPGKERELVAALNRVGGTNYADSVKGRFTISRDNAKNTVYLQMNSLKPEDTAVYYCNADIVARSSYSTKYEEFYYWGLGTQVTVSS”, with “low polyreactivity”. For “QVQLVESGGGLVQAGGSLRLSCAASGRTFYHYTMGWSSQAPGKERELVARITRRVGSTYYADSVKGRFTISRDNTKNTVYLQMNSLKPEDTAVYYCNAKSGVYRYLLDYWGQGTQVTVTS” the value was “high polyreactivity”; for “QVQLVESGGGLVQAGGSLRLSCAASGRTFYHYTMGWYRQAPGKERELVARITRRVGSTYYADSVKGRFTISRDNAKNTVYLQMNSLKPEDTAVYYCNDKSGLYRYLLDYWGQGTQVTVSS”, “high polyreactivity”.

Regarding “QVQLVESGGGLVQAGGSLRLSCAASGRTFYINAMGWYRQAPGKERELVAAITWSGGRTYYADSVKGRFTISRDNAKNTVYLQMNSLKPEDTAVYYCNTRSYSYYVPYRYDYWGQGSQVTVSS”, the “polyreactivity (PSR sort gate)” value is reported as “high polyreactivity”. Then “QVQLVESGGGLVQAGGSLRLSCAASGRTFYIYAMGWYRQAPGKERELVAAITRIDGSTYYADSVKGRFTISRDNAKNTVYLQMNSLKPEDTAVYYCAAEYGPGLTEGLYYYWGQGTQVTVSS”, with “high polyreactivity”.
